The numbers were not newly measured in publication PMC4482139, which cites them from elsewhere.

pKd: −log10 of the molar value.

The pKd is the negative decadic logarithm of the Kd, by convention in mol/L.

Series [1] has as its target nmMLCK1 (Homo sapiens) (UniProt Q15746).
Series [2] deals with nmMLCK2 (Homo sapiens) (UniProt Q15746).

As for Cortactin (from UniProt Q14247), the figures for the negative logarithm of the Kd (pKd) in series [1] and in series [2] were 6.00 and 6.60, respectively.
